Data on one molecule can be found in publication doi:10.1101/2021.02.24.432656 (bioRxiv, 2021).

In the assay the target is T1, bacterially purified STAT1 recombinant protein (human, UniProt P42224 1-750).
T1 sequence: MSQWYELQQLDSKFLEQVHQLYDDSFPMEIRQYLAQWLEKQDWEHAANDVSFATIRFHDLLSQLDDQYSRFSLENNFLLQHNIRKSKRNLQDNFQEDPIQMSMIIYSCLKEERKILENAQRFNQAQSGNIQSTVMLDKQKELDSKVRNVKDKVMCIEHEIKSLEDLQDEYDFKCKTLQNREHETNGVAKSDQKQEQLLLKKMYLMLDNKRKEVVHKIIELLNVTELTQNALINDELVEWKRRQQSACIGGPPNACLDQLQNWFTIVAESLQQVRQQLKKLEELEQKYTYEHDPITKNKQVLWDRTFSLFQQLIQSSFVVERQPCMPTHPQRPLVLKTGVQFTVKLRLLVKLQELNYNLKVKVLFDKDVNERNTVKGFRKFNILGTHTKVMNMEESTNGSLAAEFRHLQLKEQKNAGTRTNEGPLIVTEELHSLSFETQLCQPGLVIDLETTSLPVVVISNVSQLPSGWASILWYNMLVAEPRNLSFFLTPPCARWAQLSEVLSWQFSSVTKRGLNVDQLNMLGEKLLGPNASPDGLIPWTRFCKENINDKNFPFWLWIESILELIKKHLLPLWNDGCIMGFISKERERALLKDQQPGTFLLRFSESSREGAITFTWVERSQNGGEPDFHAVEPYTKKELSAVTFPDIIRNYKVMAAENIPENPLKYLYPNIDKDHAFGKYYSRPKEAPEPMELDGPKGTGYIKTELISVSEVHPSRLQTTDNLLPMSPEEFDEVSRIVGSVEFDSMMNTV
Briefly: pull-down.

B1: GST-GFP fused with the C-terminal peptide of ORF6 wild type (49-61 amino acids) (domain or fragment)
chain: YSQLDEEQPMEID
For the molecule B1, the binding result was “binds”.
